# In PMC7954794 (2021):
# B1: S. cerevisiae Abp1 (full length; SH3 domain 535-592 mutated) / Hua2 (parent complex)
# chain 1: MALEPIDYTTHSREIDAEYLKIVRGSDPDTTWLIISPNAKKEYEPESTGSSFHDFLQLFDETKVQYGLARVSPPGSDVEKIIIIGWCPDSAPLKTRASFAANFAAVANNLFKGYHVQVTARDEDDLDENELLMKISNAAGARYSIQTSSKQQGKASTPPVKKSFTPSKSPAPVSKKEPVKTPSPAPAAKISSRVNDNNDDDDWNEPELKERDFDQAPLKPNQSSYKPIGKIDLQKVIAEEKAKEDPRLVQKPTAAGSKIDPSSDIANLKNESKLKRDSEFNSFLGTTKPPSMTESSLKNDDDKVIKGFRNEKSPAQLWAERKAKQNSGNAETKAEAPKPEVPEDEPEGEPDVKDLKSKFEGLAASEKEEEEMENKFAPPPKKSEPTIISPKPFSKPQEPVKAEEAEQPKTDYKKIGNPLPGMHIEADNEEEPEENDDDWDDDEDEAAQPPLPSRNVASGAPVQKEEPEQEEIAPSLPSRNSIPAPKQEEAPEQAPEEEIEEEAEEAAPQLPSRSSAAPPPPPRRATPEKKPKENPWATAEYDYDAAEDNELTFVENDKIINIEFVDDDWWLGELEKDGSKGLFPSNYVSLGN
# chain 2: MQQTKFGKMYLDHDSVVEYSEDEIVEADRITLGYKKRLSMIENQMRHLLEDFSLDVQQIEPILADLQKYYDAFLQLLQKRNKSLQCKRSTHQPVPSPMNSQTSTNAKVNLSGKLMKFQLNSVQKFDEENILRILQNKIEFEHYFQIDKGKKQKVLLLAVYQCLNGPTRLHKVLNIEGIIHNNSIRTILGKQVSSSKWTVFLYDVKLVLLAHRQDVPNLETSKMIVRYGDLFPCALYFKDHTAY
# Variants of: B1
# Test: DHFR protein-fragment complementation in yeast (Abp1-DHFR F[1,2] x partner-DHFR F[3]), deep mutational scanning, second methotrexate selection vs reference; S. cerevisiae, DHFR-PCA selection in liquid with methotrexate at 30 C, two 72 h selections (the score uses the second); reference = the pre-selection culture
row,Variant,screen value
1,chain 1 D568G,"-2.49 DMS score: mean over two replicates of log2(f_test/f_ref + 0.5)/ln 2, minus the synonymous-codon median (not a log2 …"
2,chain 1 D568N,"-2.05 DMS score: mean over two replicates of log2(f_test/f_ref + 0.5)/ln 2, minus the synonymous-codon median (not a log2 …"
3,chain 1 K558C,"-0.507 DMS score: mean over two replicates of log2(f_test/f_ref + 0.5)/ln 2, minus the synonymous-codon median (not a log2 …"
4,chain 1 K558L,"0.204 DMS score: mean over two replicates of log2(f_test/f_ref + 0.5)/ln 2, minus the synonymous-codon median (not a log2 …"
5,chain 1 G591Y,"-0.189 DMS score: mean over two replicates of log2(f_test/f_ref + 0.5)/ln 2, minus the synonymous-codon median (not a log2 …"
6,chain 1 G591Q,"0.531 DMS score: mean over two replicates of log2(f_test/f_ref + 0.5)/ln 2, minus the synonymous-codon median (not a log2 …"
7,chain 1 G591H,"-0.407 DMS score: mean over two replicates of log2(f_test/f_ref + 0.5)/ln 2, minus the synonymous-codon median (not a log2 …"
8,chain 1 L590F,"-0.882 DMS score: mean over two replicates of log2(f_test/f_ref + 0.5)/ln 2, minus the synonymous-codon median (not a log2 …"
9,chain 1 Y541N,"-1.91 DMS score: mean over two replicates of log2(f_test/f_ref + 0.5)/ln 2, minus the synonymous-codon median (not a log2 …"
10,chain 1 Y541D,"-1.13 DMS score: mean over two replicates of log2(f_test/f_ref + 0.5)/ln 2, minus the synonymous-codon median (not a log2 …"
11,chain 1 Y541C,"-1.21 DMS score: mean over two replicates of log2(f_test/f_ref + 0.5)/ln 2, minus the synonymous-codon median (not a log2 …"
12,chain 1 Y541E,"-1.48 DMS score: mean over two replicates of log2(f_test/f_ref + 0.5)/ln 2, minus the synonymous-codon median (not a log2 …"
13,chain 1 Y541K,"-2.77 DMS score: mean over two replicates of log2(f_test/f_ref + 0.5)/ln 2, minus the synonymous-codon median (not a log2 …"
14,chain 1 Y541F,"0.0303 DMS score: mean over two replicates of log2(f_test/f_ref + 0.5)/ln 2, minus the synonymous-codon median (not a log2 …"
15,chain 1 E575C,"-0.21 DMS score: mean over two replicates of log2(f_test/f_ref + 0.5)/ln 2, minus the synonymous-codon median (not a log2 …"
16,chain 1 A545Q,"0.22 DMS score: mean over two replicates of log2(f_test/f_ref + 0.5)/ln 2, minus the synonymous-codon median (not a log2 …"
17,chain 1 V554D,"0.269 DMS score: mean over two replicates of log2(f_test/f_ref + 0.5)/ln 2, minus the synonymous-codon median (not a log2 …"
18,chain 1 V554R,"0.925 DMS score: mean over two replicates of log2(f_test/f_ref + 0.5)/ln 2, minus the synonymous-codon median (not a log2 …"
19,chain 1 V554M,"-0.0016 DMS score: mean over two replicates of log2(f_test/f_ref + 0.5)/ln 2, minus the synonymous-codon median (not a log2 …"
20,chain 1 V554L,"-0.408 DMS score: mean over two replicates of log2(f_test/f_ref + 0.5)/ln 2, minus the synonymous-codon median (not a log2 …"
21,chain 1 D544H,"0.503 DMS score: mean over two replicates of log2(f_test/f_ref + 0.5)/ln 2, minus the synonymous-codon median (not a log2 …"

row,Variant,screen value
1,chain 1 D544P,"-0.888 DMS score: mean over two replicates of log2(f_test/f_ref + 0.5)/ln 2, minus the synonymous-codon median (not a log2 …"
2,chain 1 D544N,"-0.362 DMS score: mean over two replicates of log2(f_test/f_ref + 0.5)/ln 2, minus the synonymous-codon median (not a log2 …"
3,chain 1 D544L,"0.763 DMS score: mean over two replicates of log2(f_test/f_ref + 0.5)/ln 2, minus the synonymous-codon median (not a log2 …"
4,chain 1 D544F,"0.632 DMS score: mean over two replicates of log2(f_test/f_ref + 0.5)/ln 2, minus the synonymous-codon median (not a log2 …"
5,chain 1 D544T,"0.786 DMS score: mean over two replicates of log2(f_test/f_ref + 0.5)/ln 2, minus the synonymous-codon median (not a log2 …"
6,chain 1 P535V,"1.51 DMS score: mean over two replicates of log2(f_test/f_ref + 0.5)/ln 2, minus the synonymous-codon median (not a log2 …"
7,chain 1 E563D,"0.0054 DMS score: mean over two replicates of log2(f_test/f_ref + 0.5)/ln 2, minus the synonymous-codon median (not a log2 …"
8,chain 1 E563R,"-1.39 DMS score: mean over two replicates of log2(f_test/f_ref + 0.5)/ln 2, minus the synonymous-codon median (not a log2 …"
9,chain 1 E563A,"-1.08 DMS score: mean over two replicates of log2(f_test/f_ref + 0.5)/ln 2, minus the synonymous-codon median (not a log2 …"
10,chain 1 E563T,"-1.2 DMS score: mean over two replicates of log2(f_test/f_ref + 0.5)/ln 2, minus the synonymous-codon median (not a log2 …"
11,chain 1 K580N,"-0.698 DMS score: mean over two replicates of log2(f_test/f_ref + 0.5)/ln 2, minus the synonymous-codon median (not a log2 …"
12,chain 1 K580T,"0.165 DMS score: mean over two replicates of log2(f_test/f_ref + 0.5)/ln 2, minus the synonymous-codon median (not a log2 …"
13,chain 1 L582Y,"0.369 DMS score: mean over two replicates of log2(f_test/f_ref + 0.5)/ln 2, minus the synonymous-codon median (not a log2 …"
14,chain 1 E573C,"0.625 DMS score: mean over two replicates of log2(f_test/f_ref + 0.5)/ln 2, minus the synonymous-codon median (not a log2 …"
15,chain 1 E573V,"0.415 DMS score: mean over two replicates of log2(f_test/f_ref + 0.5)/ln 2, minus the synonymous-codon median (not a log2 …"
16,chain 1 E540L,"-2.53 DMS score: mean over two replicates of log2(f_test/f_ref + 0.5)/ln 2, minus the synonymous-codon median (not a log2 …"
17,chain 1 E540H,"-2.15 DMS score: mean over two replicates of log2(f_test/f_ref + 0.5)/ln 2, minus the synonymous-codon median (not a log2 …"
18,chain 1 D567G,"-2.86 DMS score: mean over two replicates of log2(f_test/f_ref + 0.5)/ln 2, minus the synonymous-codon median (not a log2 …"
19,chain 1 D567E,"-1.62 DMS score: mean over two replicates of log2(f_test/f_ref + 0.5)/ln 2, minus the synonymous-codon median (not a log2 …"
20,chain 1 D567V,"-2.81 DMS score: mean over two replicates of log2(f_test/f_ref + 0.5)/ln 2, minus the synonymous-codon median (not a log2 …"
21,chain 1 D567A,"-2.23 DMS score: mean over two replicates of log2(f_test/f_ref + 0.5)/ln 2, minus the synonymous-codon median (not a log2 …"

# Continued, values first:
row,screen value,Variant
1,"-2.97 DMS score: mean over two replicates of log2(f_test/f_ref + 0.5)/ln 2, minus the synonymous-codon median (not a log2 …",chain 1 D568S
2,"-1.81 DMS score: mean over two replicates of log2(f_test/f_ref + 0.5)/ln 2, minus the synonymous-codon median (not a log2 …",chain 1 D568A
3,"-2.63 DMS score: mean over two replicates of log2(f_test/f_ref + 0.5)/ln 2, minus the synonymous-codon median (not a log2 …",chain 1 D568H
4,"0.186 DMS score: mean over two replicates of log2(f_test/f_ref + 0.5)/ln 2, minus the synonymous-codon median (not a log2 …",chain 1 K558T
5,"-0.388 DMS score: mean over two replicates of log2(f_test/f_ref + 0.5)/ln 2, minus the synonymous-codon median (not a log2 …",chain 1 K558Q
6,"-0.942 DMS score: mean over two replicates of log2(f_test/f_ref + 0.5)/ln 2, minus the synonymous-codon median (not a log2 …",chain 1 K558E
7,"-0.26 DMS score: mean over two replicates of log2(f_test/f_ref + 0.5)/ln 2, minus the synonymous-codon median (not a log2 …",chain 1 W536M
8,"-0.259 DMS score: mean over two replicates of log2(f_test/f_ref + 0.5)/ln 2, minus the synonymous-codon median (not a log2 …",chain 1 W536V
9,"-0.568 DMS score: mean over two replicates of log2(f_test/f_ref + 0.5)/ln 2, minus the synonymous-codon median (not a log2 …",chain 1 L574M
10,"0.409 DMS score: mean over two replicates of log2(f_test/f_ref + 0.5)/ln 2, minus the synonymous-codon median (not a log2 …",chain 1 G591S
11,"-0.0626 DMS score: mean over two replicates of log2(f_test/f_ref + 0.5)/ln 2, minus the synonymous-codon median (not a log2 …",chain 1 G591V
12,"0.474 DMS score: mean over two replicates of log2(f_test/f_ref + 0.5)/ln 2, minus the synonymous-codon median (not a log2 …",chain 1 G591I
13,"-0.17 DMS score: mean over two replicates of log2(f_test/f_ref + 0.5)/ln 2, minus the synonymous-codon median (not a log2 …",chain 1 A539C
14,"-2.57 DMS score: mean over two replicates of log2(f_test/f_ref + 0.5)/ln 2, minus the synonymous-codon median (not a log2 …",chain 1 Y541L
15,"-0.106 DMS score: mean over two replicates of log2(f_test/f_ref + 0.5)/ln 2, minus the synonymous-codon median (not a log2 …",chain 1 E575L
16,"0.128 DMS score: mean over two replicates of log2(f_test/f_ref + 0.5)/ln 2, minus the synonymous-codon median (not a log2 …",chain 1 V554N
17,"0.89 DMS score: mean over two replicates of log2(f_test/f_ref + 0.5)/ln 2, minus the synonymous-codon median (not a log2 …",chain 1 V554Y

row,screen value,Variant
1,"0.735 DMS score: mean over two replicates of log2(f_test/f_ref + 0.5)/ln 2, minus the synonymous-codon median (not a log2 …",chain 1 Y543F
2,"0.254 DMS score: mean over two replicates of log2(f_test/f_ref + 0.5)/ln 2, minus the synonymous-codon median (not a log2 …",chain 1 Y543W
3,"-0.602 DMS score: mean over two replicates of log2(f_test/f_ref + 0.5)/ln 2, minus the synonymous-codon median (not a log2 …",chain 1 D544Y
4,"1.68 DMS score: mean over two replicates of log2(f_test/f_ref + 0.5)/ln 2, minus the synonymous-codon median (not a log2 …",chain 1 D544K
5,"-0.642 DMS score: mean over two replicates of log2(f_test/f_ref + 0.5)/ln 2, minus the synonymous-codon median (not a log2 …",chain 1 L551M
6,"0.493 DMS score: mean over two replicates of log2(f_test/f_ref + 0.5)/ln 2, minus the synonymous-codon median (not a log2 …",chain 1 P535W
7,"0.473 DMS score: mean over two replicates of log2(f_test/f_ref + 0.5)/ln 2, minus the synonymous-codon median (not a log2 …",chain 1 P535D
8,"1.11 DMS score: mean over two replicates of log2(f_test/f_ref + 0.5)/ln 2, minus the synonymous-codon median (not a log2 …",chain 1 P535Q
9,"1.02 DMS score: mean over two replicates of log2(f_test/f_ref + 0.5)/ln 2, minus the synonymous-codon median (not a log2 …",chain 1 P535M
10,"-0.984 DMS score: mean over two replicates of log2(f_test/f_ref + 0.5)/ln 2, minus the synonymous-codon median (not a log2 …",chain 1 K580E
11,"0.294 DMS score: mean over two replicates of log2(f_test/f_ref + 0.5)/ln 2, minus the synonymous-codon median (not a log2 …",chain 1 K580Q
12,"0.457 DMS score: mean over two replicates of log2(f_test/f_ref + 0.5)/ln 2, minus the synonymous-codon median (not a log2 …",chain 1 K580R
13,"0.0243 DMS score: mean over two replicates of log2(f_test/f_ref + 0.5)/ln 2, minus the synonymous-codon median (not a log2 …",chain 1 K580F
14,"-0.00598 DMS score: mean over two replicates of log2(f_test/f_ref + 0.5)/ln 2, minus the synonymous-codon median (not a log2 …",chain 1 K580S
15,"-0.47 DMS score: mean over two replicates of log2(f_test/f_ref + 0.5)/ln 2, minus the synonymous-codon median (not a log2 …",chain 1 E573S
16,"-1.73 DMS score: mean over two replicates of log2(f_test/f_ref + 0.5)/ln 2, minus the synonymous-codon median (not a log2 …",chain 1 N586D
